Patent US20260000736A1, “PURIFIED LACTOFERRIN COMPOSITIONS AND METHODS OF USE” (Lactea Therapeutics LLC, priority 2023, published 2026)

Key:
[1] = tested on: ECM of primary buccal cells; assay: ECM association by immunofluorescence in primary buccal cells; format: cell-based; settings: 100 µg/mL for 1 hr at 37 C
Experimental: Primary buccal cells were next cultured according to a standard protocol (e.g., see Russo et al. Cytotechnology. 2016 October; 68(5): 2105-2114; herein incorporated by reference for all purposes). […] Immunofluorescence imaging was performed as previously described.

[2] = Differential Scanning Calorimetry (DSC) of apolactoferrin and hololactoferrin forms; format: physicochemical
Experimental: Di[…] Calorimetry (DSC) was used to assess the hololactoferrin and apolactoferrin forms through monitoring unfolding temperatures of lactoferrin samples using a nanoDSC (TA Instruments, Lindon, UT) according to standard DSC protocols known to those of skill in the art (e.g., see Hinz et al “M[…] […] OF […] ON […] DI[…] CALORIMETRY”; herein incorporated by reference for all purposes.
API-E2 Lactoferrin (10 mg/mL), produced as described herein, was assessed by DSC. […] The lack of other peaks indicates the lack of contaminants and impurities and can assess API-E2 as ˜100%. […] Additionally, the lack of other peaks also indicated the purity of API-E2 Lactoferrin. […] The API-E2 hololactoferrin peak has a Tm of 88.38+/−0.8 C and a delta H of 632.7+/−7.2 kJ/mol. The hololactoferrin natively accounted for on average 8.74+/−1.39% of the total API-E2 lactoferrin with apolactoferrin accounting for the rest in the samples tested. However, the hololactoferrin percentage can be naturally variable. The API-E2 was calculated by this technique to contain virtually 100% pure lactoferrin.
The assay was also performed with heat-treated API-E2 Lactoferrin. API-E2 Lactoferrin was heated across a range of 50-100° C.
Lab-grade standard lactoferrin and a commercially available supplement-grade lactoferrin were also assessed by DSC under the conditions used to assess API-E2 above.

B1: Lab-grade standard lactoferrin: commercially available lab-grade standard lactoferrin (protein, UniProt P24627 20-708, looked up)
Lactotransferrin: APRKNVRWCTISQPEWFKCRRWQWRMKKLGAPSITCVRRAFALECIRAIAEKKADAVTLDGGMVFEAGRDPYKLRPVAAEIYGTKESPQTHYYAVAVVKKGSNFQLDQLQGRKSCHTGLGRSAGWIIPMGILRPYLSWTESLEPLQGAVAKFFSASCVPCIDRQAYPNLCQLCKGEGENQCACSSREPYFGYSGAFKCLQDGAGDVAFVKETTVFENLPEKADRDQYELLCLNNSRAPVDAFKECHLAQVPSHAVVARSVDGKEDLIWKLLSKAQEKFGKNKSRSFQLFGSPPGQRDLLFKDSALGFLRIPSKVDSALYLGSRYLTTLKNLRETAEEVKARYTRVVWCAVGPEEQKKCQQWSQQSGQNVTCATASTTDDCIVLVLKGEADALNLDGGYIYTAGKCGLVPVLAENRKSSKHSSLDCVLRPTEGYLAVAVVKKANEGLTWNSLKDKKSCHTAVDRTAGWNIPMGLIVNQTGSCAFDEFFSQSCAPGADPKSRLCALCAGDDQGLDKCVPNSKEKYYGYTGAFRCLAEDVGDVAFVKNDTVWENTNGESTADWAKNLNREDFRLLCLDGTRKPVTEAQSCHLAVAPNHAVVSRSDRAAHVKQVLLHQQALFGKNGKNCPDKFCLFKSETKNLLFNDNTECLAKLGGRPTYEEYLGTEYVTAIANLKKCSTSPLLEACAFLTR
[1]
  ECM association of Lactoferrin (immunofluorescence imaging): only limited ECM association
[2]; 10 mg/mL
  Tm, Apolactoferrin peak: 55 C
  Tm, Hololactoferrin peak: 85 C
[2]; conditions as for API-E2
  estimated ratio of the apolactoferrin to hololactoferrin peak: nearly equal

B2: heat-treated API-E2 Lactoferrin: API-E2 Lactoferrin heated across a range of 50-100° C. (protein, UniProt P24627 20-708, looked up)
Lactotransferrin: APRKNVRWCTISQPEWFKCRRWQWRMKKLGAPSITCVRRAFALECIRAIAEKKADAVTLDGGMVFEAGRDPYKLRPVAAEIYGTKESPQTHYYAVAVVKKGSNFQLDQLQGRKSCHTGLGRSAGWIIPMGILRPYLSWTESLEPLQGAVAKFFSASCVPCIDRQAYPNLCQLCKGEGENQCACSSREPYFGYSGAFKCLQDGAGDVAFVKETTVFENLPEKADRDQYELLCLNNSRAPVDAFKECHLAQVPSHAVVARSVDGKEDLIWKLLSKAQEKFGKNKSRSFQLFGSPPGQRDLLFKDSALGFLRIPSKVDSALYLGSRYLTTLKNLRETAEEVKARYTRVVWCAVGPEEQKKCQQWSQQSGQNVTCATASTTDDCIVLVLKGEADALNLDGGYIYTAGKCGLVPVLAENRKSSKHSSLDCVLRPTEGYLAVAVVKKANEGLTWNSLKDKKSCHTAVDRTAGWNIPMGLIVNQTGSCAFDEFFSQSCAPGADPKSRLCALCAGDDQGLDKCVPNSKEKYYGYTGAFRCLAEDVGDVAFVKNDTVWENTNGESTADWAKNLNREDFRLLCLDGTRKPVTEAQSCHLAVAPNHAVVSRSDRAAHVKQVLLHQQALFGKNGKNCPDKFCLFKSETKNLLFNDNTECLAKLGGRPTYEEYLGTEYVTAIANLKKCSTSPLLEACAFLTR
modifications: heat-treated
[2]; conditions as for API-E2
  detectable apolactoferrin and hololactoferrin DSC peaks: loss in both detectable peaks
